Holding throughout (details): PtdIns5P co-substrate, 10 mM MgCl2, pH 7.4, 30 °C, ATP 0–150 μM
Substrate in series [1]: Nc1ncnc2c1ncn2[C@@H]1O[C@H](COP(=O)(O)OP(=O)(O)OP(=O)(O)O)[C@@H](O)[C@H]1O
As to the kind of experiment: radiometric lipid kinase assay, TLC. The format is biochemical, Homo sapiens. An excerpt:
radiometric lipid kinase assay, TLC on PI5P4Kβ

Substrate in series [2]: Nc1ncnc2c1ncn2[C@@H]1O[C@H](COP(=O)(O)OP(=O)(O)OP(=O)(O)O)[C@@H](O)[C@H]1O
As to the kind of experiment: radiometric lipid kinase assay, TLC. Format: biochemical, Homo sapiens. The source holds these as a separate data set.

Substrate in the series “purified protein”: Nc1ncnc2c1ncn2[C@@H]1O[C@H](COP(=O)(O)OP(=O)(O)OP(=O)(O)O)[C@@H](O)[C@H]1O
As to the kind of experiment: purified protein.

B1: PI5P4Kβ (Homo sapiens) (protein)
chain: MSSNCTSTTAVAVAPLSASKTKTKKKHFVCQKVKLFRASEPILSVLMWGVNHTINELSNVPVPVMLMPDDFKAYSKIKVDNHLFNKENLPSRFKFKEYCPMVFRNLRERFGIDDQDYQNSVTRSAPINSDSQGRCGTRFLTTYDRRFVIKTVSSEDVAEMHNILKKYHQFIVECHGNTLLPQFLGMYRLTVDGVETYMVVTRNVFSHRLTVHRKYDLKGSTVAREASDKEKAKDLPTFKDNDFLNEGQKLHVGEESKKNFLEKLKRDVEFLAQLKIMDYSLLVGIHDVDRAEQEEMEVEERAEDEECENDGVGGNLLCSYGTPPDSPGNLLSFPRFFGPGEFDPSVDVYAMKSHESSPKKEVYFMAIIDILTPYDTKKKAAHAAKTVKHGAGAEISTVNPEQYSKRFNEFMSNILT
notes: full-length cDNA in pGEX6P, E. coli BL21(DE3), GST fusion or GST cleaved by PreScission; mutant PI5P4Kβ+ His-tagged; homodimer
As to B1, in series [1], the Km (in general, the substrate concentration at which the rate is half of its maximum) came out at 67.05 µM; the kcat (commonly the number of substrate molecules converted per active site and unit of time at saturation) is 9.55e-05 s⁻¹.

B2: PI5P4Kα (Homo sapiens) (protein)
chain: MATPGNLGSSVLASKTKTKKKHFVAQKVKLFRASDPLLSVLMWGVNHSINELSHVQIPVMLMPDDFKAYSKIKVDNHLFNKENMPSHFKFKEYCPMVFRNLRERFGIDDQDFQNSLTRSAPLPNDSQARSGARFHTSYDKRYIIKTITSEDVAEMHNILKKYHQYIVECHGITLLPQFLGMYRLNVDGVEIYVIVTRNVFSHRLSVYRKYDLKGSTVAREASDKEKAKELPTLKDNDFINEGQKIYIDDNNKKVFLEKLKKDVEFLAQLKLMDYSLLVGIHDVERAEQEEVECEENDGEEEGESDGTHPVGTPPDSPGNTLNSSPPLAPGEFDPNIDVYGIKCHENSPRKEVYFMAIIDILTHYDAKKKAAHAAKTVKHGAGAEISTVNPEQYSKRFLDFIGHILT
notes: full-length cDNA in pGEX6P, E. coli BL21(DE3), GST fusion or GST cleaved by PreScission; His6-tagged version used as standard for kcat conversion; homodimer
As to B2, in series [2], the Km worked out at 3.94 µM and the kcat is 0.0105 s⁻¹.

B3: PI5P4Kγ (Homo sapiens) (protein)
chain: ASSSVPPATVSAATAGPGPGFGFASKTKKKHFVQQKVKVFRAADPLVGVFLWGVAHSINELSQVPPPVMLLPDDFKASSKIKVNNHLFHRENLPSHFKFKEYCPQVFRNLRDRFGIDDQDYLVSLTRNPPSESEGSDGRFLISYDRTLVIKEVSSEDIADMHSNLSNYHQYIVKCHGNTLLPQFLGMYRVSVDNEDSYMLVMRNMFSHRLPVHRKYDLKGSLVSREASDKEKVKELPTLKDMDFLNKNQKVYIGEEEKKIFLEKLKRDVEFLVQLKIMDYSLLLGIHDIIRGSEPEEEAPVREDESEVDGDCSLTGPPALVGSYGTSPEGIGGYIHSHRPLGPGEFESFIDVYAIRSAEGAPQKEVYFMGLIDILTQYDAKKKAAHAAKTVKHGAGAEISTVHPEQYAKRFLDFITNIFA
Turning to B3, in the series “purified protein”, the Km is 94.18 µM and the kcat is 5.72e-06 s⁻¹.

For the origin of these results see PMC3749867, “Evolutionarily conserved structural changes in phosphatidylinositol 5-phosphate 4-kinase (PI5P4K) isoforms are responsible for differences in enzyme activity and localization” (Biochemical Journal, 2013).
